The target of this assay is T1, 13C, 15N-enriched PIN1 (NMR sample) (human, UniProt Q13526 1-163, 13C, 15N-enriched).
T1 construct: PIN1, human; resonances of both the WW and the PPIase domain were followed; also called 15N-labeled PIN1
Briefly: NMR titration; series of 2D HSQC spectra of 0.1 mM 13C, 15N-enriched PIN1 titrated with the CDH1 phosphopeptide; 25 °C, pH 6.6, 20 mM potassium phosphate, 100 mM NaSO4, 10% D2O; chemical shift perturbation. The conditions noted are these: both partners purified.

Square brackets hold non-standard residues; d marks the D form. Ends that are not written are not given here. Pro(13C,15N) = 13C, 15N isotope-labelled Pro; pS = N[C@@H](COP(=O)(O)O)C(=O)O

T1 sequence (Q13526 whole entry, the tested form may be a part): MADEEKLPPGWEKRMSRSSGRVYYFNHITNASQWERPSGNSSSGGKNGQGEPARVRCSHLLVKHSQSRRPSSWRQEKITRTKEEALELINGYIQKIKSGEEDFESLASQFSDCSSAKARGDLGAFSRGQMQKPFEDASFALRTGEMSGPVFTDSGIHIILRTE

B1: CDH1-pS163 peptide (peptide)
peptide: LR[pS][Pro(13C,15N)]RKPTRKISKIPFKVLDAPE
notes: CDH1 (FZR1), human, residues 161-183; also called CDH1 phosphopeptide; phosphorylated peptide; source: synthetic peptide, bought: Pepmic
Take B1: the binding result is recorded as “binds”.

(Values after paper PMC11018817, “Reciprocal antagonism of PIN1-APC/C^CDH1 governs mitotic protein stability and cell cycle entry” (Nature Communications, 2024).)
